Substitutions are numbered along the chain they refer to.
B1: MOR13655 (antibody, human IgG1, lambda, V domains shown)
VH: QVQLVQSGAEVKKPGASVKVSCKASGYTFTSYDIHWVRQAPGQGLEWMGRIDPYSGNTNYAQKFQGRVTMTRDTSISTAYMELSRLRSEDTAVYYCARGSFYTRDSYFDVWGQGTLVTVSS
VL: DIALTQPASVSGSPGQSITISCTGTSSDVGTYNQVSWYQQHPGKAPKLMIYGVSKRPSGVSNRFSGSKSGNTASLTISGLQAEDEADYYCSSATQKPDVTVFGGGTKLTVLG
notes: Tested as IgG
B2: MOR13654 (antibody, human IgG1, lambda, V domains shown)
VH: B1 VH
VL: B1 VL with S91Q, A93R, T94G, Q95E, K96Y, P97R, D98P, V99G, T100W
notes: Tested as IgG
B3: MOR13666 (antibody, human IgG1, lambda, V domains shown)
VH: B1 VH
VL: DIALTQPASVSGSPGQSITISCTGTSSDVGTYNQVSWYQQHPGKAPKLMIYGVSKRPSGVSNRFSGSKSGNTASLTISGLQAEDEADYYCSTTTYSFHMVFGGGTKLTVLG
notes: Tested as IgG
B4: MOR13658 (antibody, human IgG1, lambda, V domains shown)
VH: B1 VH
VL: B3 VL with S91A, T92S, T93A, T94D, Y95H, F97Y, M99T
notes: Tested as IgG
B5: MOR12603 (antibody, human IgG1, kappa, V domains shown)
VH: QVQLVQSGAEVKKPGSSVKVSCKASGGTFSSYAISWVRQAPGQGLEWMGLIIPRYGKARYAQKFQGRVTITADESTSTAYMELSSLRSEDTAVYYCARNWPYYYMDFWGQGTLVTVSS
VL: DIVLTQSPATLSLSPGERATLSCRASQNIVFNLAWYQQKPGQAPRLLIYDASNRATGVPARFSGSGSGTDFTLTISSLEPEDFAVYYCQQTKNRPPTFGQGTKVEIKR
notes: Tested as IgG
B6: MOR12606 (antibody, human IgG1, kappa, V domains shown)
VH: B5 VH
VL: DIVLTQSPATLSLSPGERATLSCRASQNIVFNLAWYQQKPGQAPRLLIYDASNRATGVPARFSGSGSGTDFTLTISSLEPEDFAVYYCQQTKSKPSPTFGQGTKVEIKR
notes: Tested as IgG
B7: MOR12605 (antibody, human IgG1, kappa, V domains shown)
VH: B5 VH
VL: B5 VL with T91F, K92R, N93R, R94K, P95S, P96N
notes: Tested as IgG
B8: MOR12514 (antibody, human IgG1, lambda, V domains shown)
VH: B1 VH
VL: B3 VL with S91Q, T92V, T93R, T94D, Y95M, F97L, H98F, M99D
notes: Tested as IgG
B9: MOR12516 (antibody, human IgG1, lambda, V domains shown)
VH: B1 VH
VL: B1 VL with S91Q, A93R, T94D, Q95T, K96Y, P97R, D98P, T100K
notes: Tested as IgG
B10: MOR12515 (antibody, human IgG1, lambda, V domains shown)
VH: B1 VH
VL: B3 VL with S91Y, T92S, T93R, T94D, Y95S, S96P, F97M, H98D, M99Q
notes: Tested as IgG
B11: MOR12921 (antibody, human IgG1, lambda, V domains shown)
VH: B1 VH with S31G, D33Y, I34M, R50D, Y54H, T58A, N59V
VL: B3 VL with T92S, T93R, T94D, Y95L, S96I, F97G, M99Y
notes: Tested as IgG

These binders were tested against T1, human HER3 endogenously expressed on human cancer cells (SK-Br-3, BT-474, MCF7) (human, UniProt P21860 20-1342) (assay: cell-based or functional assay).

| BT-474 pAkt % inhibition | MCF7 pAkt % inhibition | MCF7 pAkt IC50 | SK-Br-3 pAkt % inhibition | SK-Br-3 pAkt IC50 | BT-474 pAkt IC50 | Binder |
| --- | --- | --- | --- | --- | --- | --- |
| 50% | 79% | 251 pM | 86% | 62 pM |  | B1 |
| 58% | 72% | 244 pM | 92% | 89 pM | 142 pM | B2 |
| 50% | 72% | 49 pM | 90% | 78 pM | 275 pM | B3 |
| 56% | 81% | 341 pM | 92% | 172 pM | 461 pM | B4 |
| 77% |  |  | 84% | 17 pM | 137 pM | B5 |
| 77% |  |  | 85% | 8 pM | 91 pM | B6 |
| 67% | 76% | 533 pM | 84% | 140 pM | 173 pM | B7 |

Molecular target: T1, human HER3 endogenously expressed on …
Test: cell-based or functional assay
Remark: another data set of the same source

| MCF7 proliferation % inhibition | MCF7 proliferation IC50 | SK-Br-3 proliferation % inhibition | SK-Br-3 proliferation IC50 | BT-474 proliferation % inhibition | BT-474 proliferation IC50 | Binder |
| --- | --- | --- | --- | --- | --- | --- |
| 29% | 317 pM | 36% | 44 pM |  |  | B8 |
| 34% | 492 pM | 34% | 2080 pM |  |  | B9 |
| 46% | 86 pM | 39% | 74 pM | 31% | 141 pM | B1 |
| 26% | 1090 pM | 36% | 278 pM |  |  | B10 |
|  |  | 34% | 136 pM | 27% | 632 pM | B2 |
|  |  | 39% | 870 pM | 31% | 1120 pM | B3 |
| 31% | 2310 pM | 42% | 432 pM |  |  | B11 |
| 49% | 174 pM | 42% | 191 pM | 34% | 423 pM | B4 |
| 44% | 58 pM | 36% | 34 pM | 37% | 136 pM | B5 |
| 39% | 52 pM | 36% |  | 40% | 127 pM | B6 |
| 45% | 28 pM | 29% | 0.01 pM |  |  | B7 |

What follows are binders tested against T2, Hu HER3: CD33-[Human HER3, residues 20-640]-TAG (human, UniProt P21860 20-640) (assay: solution equilibrium titration (SET), IgG, ECL read-out).
T2 construct: also called hu HER3-Tag; HER3-Tag; not shown: C-terminal TAG (e.g. FLAG TAG)

| Kd | Binder |
| --- | --- |
| 970 pM | B8 |
| 1800 pM | B9 |
| 66 pM | B1 |
| 870 pM | B10 |
| 110 pM | B2 |
| 150 pM | B3 |
| 150 pM | B11 |
| 27 pM | B4 |
| 2000 pM | B5 |
| 1500 pM | B6 |
| 1800 pM | B7 |

These binders were tested against T3, Mu HER3: CD33-[Murine HER3, residues 20-643]-TAG (mouse, UniProt Q61526 20-643) in the same assay as above.
T3 construct: also called mu HER3-Tag; not shown: C-terminal TAG (e.g. FLAG TAG)

| Kd | Binder |
| --- | --- |
| 2400 pM | B8 |
| 3900 pM | B9 |
| 1500 pM | B10 |
| 560 pM | B11 |
| 4100 pM | B5 |
| 1400 pM | B6 |
| 2300 pM | B7 |

What follows are binders tested against T4, Cyno HER3: CD33-[Cyno HER3, residues 20-643]-TAG (cynomolgus monkey, UniProt G7PIG5 20-643) in the same assay as above.
T4 construct: also called cy HER3-Tag; not shown: C-terminal TAG (e.g. FLAG TAG)

| Kd | Binder |
| --- | --- |
| 1400 pM | B8 |
| 3600 pM | B9 |
| 720 pM | B10 |
| 600 pM | B11 |
| 6100 pM | B5 |
| 2600 pM | B6 |
| 2900 pM | B7 |

The binders below were run against T5, Rat HER3: CD33-[Rat HER3, residues 20-643]-TAG (rat, UniProt Q62799 20-643) in the same assay as above.
T5 construct: also called ra HER3-Tag; not shown: C-terminal TAG (e.g. FLAG TAG)

| Kd | Binder |
| --- | --- |
| 690 pM | B11 |
| 11000 pM | B5 |
| 8100 pM | B6 |
| 9600 pM | B7 |

Molecular target: T1, human HER3 endogenously expressed on …
Test: cell-based or functional assay
Remark: another data set of the same source

| BT474 pHER3 % inhibition | BT474 pHER3 IC50 | MCF7 pHER3 % inhibition | MCF7 pHER3 IC50 | SK-Br-3 pHER3 % inhibition | SK-Br-3 pHER3 IC50 | Binder |
| --- | --- | --- | --- | --- | --- | --- |
| 70% | 707 pM | 67% | 435 pM | 77% | 223 pM | B8 |
| 63% |  | 62% | 590 pM | 74% | 1870 pM | B9 |
| 61% | 19 pM | 80% | 149 pM | 69% | 90 pM | B1 |
| 71% | 365 pM | 71% | 674 pM | 76% | 278 pM | B10 |
| 61% | 195 pM | 77% | 331 pM | 69% | 182 pM | B2 |
| 65% | 420 pM | 73% | 168 pM | 69% | 166 pM | B3 |
| 65% | 418 pM | 79% | 1230 pM | 68% | 252 pM | B11 |
| 67% | 571 pM | 83% | 459 pM | 74% | 347 pM | B4 |
| 70% | 79 pM | 77% | 11 pM | 74% | 18 pM | B5 |
| 73% | 108 pM | 87% | 34 pM | 75% | 25 pM | B6 |
| 64% | 1490 pM | 89% | 318 pM | 73% | 7 pM | B7 |
